Experiment [1] addresses T1, TGF-β3 (Homo sapiens (Human)) (UniProt P10600).
T1 sequence: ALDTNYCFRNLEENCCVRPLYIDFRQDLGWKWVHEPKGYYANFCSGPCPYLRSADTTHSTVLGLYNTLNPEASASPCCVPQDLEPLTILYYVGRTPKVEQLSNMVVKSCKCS

The target in experiment [2] is TGF-β1 (Homo sapiens (Human)) (UniProt P01137).
For experiment [3], the target named is T1, TGF-β3 (Homo sapiens (Human)). This is another data set of the same source.
For experiment [4], the target named is TGF-β1 (Homo sapiens (Human)) (UniProt P01137). This is another data set of the same source.

Chain of TGF-β1 (Homo sapiens (Human)) (P01137 279-390 limits assumed): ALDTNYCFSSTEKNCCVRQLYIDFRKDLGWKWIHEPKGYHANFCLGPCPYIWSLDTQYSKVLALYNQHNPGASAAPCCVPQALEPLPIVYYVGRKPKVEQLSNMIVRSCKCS

B1: (TβRII)^2 homo-bivalent single-chain recombinant trap (designed binder, from a related filing)
chain: TIPPEQKLISEEDLLHVQKSVNNDMIVTDNNGAVKFPQLCKFCDVRFSTCDNQKSCMSNCSITSICEKPQEVCVAVWRKNDENITLETVCHDPKLPYHDFILEDAASPKCIMKEKKKPGETFFMCSCSSDECNDNIIFSEEYNTSNPDGGRHVQKSVNNDMIVTDNNGAVKFPQLCKFCDVRFSTCDNQKSCMSNCSITSICEKPQEVCVAVWRKNDENITLETVCHDPKLPYHDFILEDAASPKCIMKEKKKPGETFFMCSCSSDECNDNIIFSEEYNTSNPDHHHHHH
Take B1: the fold potency against TβRII-ED (neutralization, Mv1Lu luciferase reporter cells) in experiment [1] and in experiment [2] was 100 fold in each case. The molecule also yielded an IC50 for TGF-β3 (neutralization, Mv1Lu luciferase reporter cells) in experiment [3] of 336 pM. The molecule also returned an IC50 for TGF-β1 (neutralization, Mv1Lu luciferase reporter cells) in experiment [4] of 1360 pM.

B2: (TβRIIb)^2 homo-bivalent single-chain recombinant trap (designed binder, from a related filing)
chain: APMAEGGGQNHHHHHHHHGGSFNPRIPPHVQKSVNNDMIVTDNNGAVKFPQLCKFCDVRFSTCDNQKSCMSNCSITSICEKPQEVCVAVWRKNDENITLETVCHDPKLPYHDFILEDAASPKCIMKEKKKPGETFFMCSCSSDECNDNIIFSEEYNTSNPDIPPHVQKSDVEMEAQKDEIICPSCNRTAHPLRHINNDMIVTDNNGAVKFPQLCKFCDVRFSTCDNQKSCMSNCSITSICEKPQEVCVAVWRKNDENITLETVCHDPKLPYHDFILEDAASPKCIMKEKKKPGETFFMCSCSSDECNDNIIFSEEYNTSNPD
In the case of B2, the fold potency against TβRII-ED (neutralization, Mv1Lu luciferase reporter cells) in experiment [1] and in experiment [2] was 1000 fold each time. Further, the IC50 for TGF-β3 (neutralization, Mv1Lu luciferase reporter cells) in experiment [3] came out at 45 pM. Moreover, the IC50 for TGF-β1 (neutralization, Mv1Lu luciferase reporter cells) in experiment [4] came out at 98 pM.

For the origin of these results see patent publication US20110236309A1.
